Assay results published in doi:10.1101/2021.11.15.468682.

Target: T1, HsPlk4 PB3 (aa 884-970) (Homo sapiens), O00444
T1 chain: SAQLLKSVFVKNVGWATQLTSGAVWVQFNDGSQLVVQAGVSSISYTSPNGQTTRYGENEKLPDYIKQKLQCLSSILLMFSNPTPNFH
Experiment: SEC-MALS
Settings: remark: other sources report otherwise

B1: HsPlk4 PB3 (aa 884-970), O00444 884-970 (domain or fragment)
chain: T1 chain
stoichiometry N: 2
